± gives the uncertainty stated by the source.
Assay: amyloid nucleation score (Sup35N fusion, yeast selection) (log enrichment); library NNK2; higher = more nucleation; inactive = no reads after selection
Outline: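 The nucleation score is the log enrichment of output over input reads, calculated with DiMSum and centred on the mode score of non-aggregating sequences. Sequences with under 100 input reads were excluded. Reads came from Illumina sequencing of plasmid inserts from psi-negative yeast expressing Sup35N fused to peptides of 20 random codons, induced 24 hours with 100 μM copper sulfate and grown 7 days at 30°C without adenine and uracil.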

| Substance | amyloid nucleation score |
| --- | --- |
| DMVDLCSKDMSRALFGPNMS | 5.39 ± 0.059 |
| DMVVMVYALLGPLQFECNK | 0.888 ± 0.15 |
| DNDCHCSWENISYLWGHLRG | inactive |
| DNELFPLYWNR | 0.309 ± 0.15 |
| DNGNTMDES | 0.232 ± 0.55 |
| DNLNRAKFDLELVESGFWVV | inactive |
| DNRKDSFMLHSFGTKVSGHK | 0.918 ± 0.37 |
| DNSAGDLYNSSVTGSPVMQL | -0.447 ± 0.22 |
| DNSFMSLYLVRIHFTYPVAA | 3.69 ± 0.082 |
| DNTELFKNDFKFKLYLSNKI | 1.72 ± 0.24 |
| DPFSHGEASEWAHLIVSTCT | 0.408 ± 0.22 |
| DPQRVFFWLPYMNLYQHEPF | 0.025 ± 1.1 |
| DPTGIGWIKEQSLVCCGGVS | 2.84 ± 0.081 |
| DQCPFFSVWWSSLDYSWM | -0.094 ± 1 |
| DQFSGNACSIIVLVSALACF | 3.01 ± 0.17 |
| DQIEIISLKNCTVG | inactive |
| DQLVLELHWTESILSYVVMP | 0.816 ± 0.48 |
| DQSFLF | -0.039 ± 0.39 |
| DQSGDQARNCKCFGSSL | 0.298 ± 0.5 |
| DQYYNH | 0.29 ± 0.77 |
| DRESRFLYVYHSRY | inactive |
| DRHIVLSHSSGNLSRLLLAL | 5.753 ± 0.055 |
| DRIAETSRYKRSENSLSLV | 0.099 ± 0.53 |
| DRIQDQRIGYVVEFSIEKVS | -0.742 ± 0.28 |
| DRSSMTG | 0.698 ± 0.21 |

| Substance | amyloid nucleation score |
| --- | --- |
| DRSSS | 0.447 ± 0.31 |
| DRTDVCWSSGHDHLDLCWMS | 0.273 ± 0.25 |
| DRTKNFLCMMKRGFLSKIPW | 0.227 ± 0.56 |
| DRYYRISSFYFISMTKLWD | inactive |
| DSCCIFIL | 5.67 ± 0.058 |
| DSCFRVLHRTGFVFMSWLII | 4.82 ± 0.082 |
| DSFIIASRL | 1.69 ± 0.1 |
| DSFLLTPDLRDMYEL | -0.681 ± 0.26 |
| DSGVAHCANPCRPYREPVQS | 1.09 ± 0.37 |
| DSSCFIIRLHSEFMLGSRSF | -0.715 ± 0.79 |
| DSSLNIGVLPIVTNGLTKCD | -0.29 ± 0.28 |
| DSTPLGYSVLLSWTLVQRNL | 1.38 ± 0.54 |
| DSVFVFGSHLFLQNSVRGRT | -0.295 ± 0.24 |
| DSWFGRFYDEESSWCWAMVR | 0.039 ± 0.36 |
| DSWLGRMTRDKGNASFRSAS | 1.16 ± 0.46 |
| DSYMKRLWCRAARDRTESVW | 0.159 ± 0.46 |
| DTCWEGCLTKTYFW | -1.29 ± 0.75 |
| DTKRVSINVRDNVTLRSFSW | -0.392 ± 0.33 |
| DTPGHGNACSKIRP | -0.159 ± 0.55 |
| DTRKFLDKLYA | -0.13 ± 0.44 |
| DTVYAF | -0.651 ± 1.1 |
| DTWEELFKNRDNPRRKCVGL | 1.32 ± 0.41 |
| DVAGKL | -0.151 ± 0.39 |
| DVCYCRKPTINALRWLMMYA | -0.27 ± 1.1 |
| DVFWKPVYARYFFHRVCMRE | inactive |

| Substance | amyloid nucleation score |
| --- | --- |
| DVLFDITNNGHSSLLAAV | 0.224 ± 0.8 |
| DVRFVTEFKSYRSCCKQSMF | 2.42 ± 0.054 |
| DWHYIEKWT | -0.12 ± 0.49 |
| DWNTWTSNFLALTGAWTGLG | 0.062 ± 0.77 |
| DWRFRSGISISKYLVINLGD | 5.79 ± 0.063 |
| DYIEKGFPGLPYHSCGSSTF | inactive |
| DYMDAYGYINRGDPGLIVEV | -0.013 ± 0.53 |
| DYVNGGCLKFKNWRWKFSLS | -0.349 ± 0.48 |
| DYVTVVGIILVLLLLNFNLG | inactive |
| EADELGLLVSIKCRAARRCW | 5.743 ± 0.052 |
| EAKFGKLKGYKCTVTGECSC | -0.391 ± 0.36 |
| EALMMVYGWEKTD | 0.733 ± 0.24 |
| EALYALLSGGASNLKSHRLL | 0.26 ± 0.65 |
| EAVNGWALLHIVSQ | 0.111 ± 0.33 |
| ECIYIMFKACGLRDRFSQVF | 1.84 ± 0.13 |
| ECNQCWNMGMM | -0.252 ± 0.76 |
| ECTYNKSWHQTWVTTRHGSS | 0.613 ± 0.23 |
| ECVRTLFYKLMTFAWLELRS | -1.02 ± 0.76 |
| EDFMRCRVWVSRGLVPSWGS | 0.747 ± 0.24 |
| EDFRGLIKL | inactive |
| EDFYAYFLIRRCVACAIIFL | 3.02 ± 0.15 |
| EEILHLVPINWGLYYYYTFC | inactive |
| EEYIRRQGVLTASLVYSKYI | inactive |
| EFCSYDGCYFIASMAFVDTR | -0.393 ± 1.1 |
| EFFCAHLRADLVLKKNRVVF | -1.05 ± 0.78 |

| Substance | amyloid nucleation score |
| --- | --- |
| EFMGVSR | 1.51 ± 0.52 |
| EGAVLRLALGVGTNLNQLSV | 0.098 ± 0.37 |
| EGCRMLNIYLPDFLSFLDTG | -1.16 ± 0.78 |
| EGEITFGTFPYSEFVFECST | inactive |
| EGFKYWIDKGSSGTVCVKST | 0.249 ± 0.65 |
| EGMLGIHRAGFLDGRGKLGL | inactive |
| EGMTMTHGAGQLMLGGTASV | 0.904 ± 0.44 |
| EGNNCW | 0.22 ± 0.23 |
| EGRVHTSLLVVCVTHTRKYM | -0.688 ± 0.42 |
| EGSCYIWGSMAITFNAHHDR | 5.68 ± 0.077 |
| EGSLPLGRSSCPGTLHDGMI | 0.922 ± 0.34 |
| EGTRIDLVKRRVNLWCI | -0.296 ± 0.76 |
| EHTFLFA | -0.297 ± 1.1 |
| EICRY | inactive |
| EIFIPCEWGIVIHQGHAVSQ | 4.46 ± 0.076 |
| EILYYWPVNVICRKSVKDCI | 0.434 ± 0.66 |
| EIYGFLVIICLLYGSLVSRW | -0.2 ± 0.45 |
| EKMLF | 0.528 ± 0.34 |
| EKQKWYYLELREAAQC | 0.284 ± 0.2 |
| EKVDCSVLAGNNWTWVNISL | 6.7 ± 0.079 |
| ELCGLMAEPYRSHILGCGWT | 3.67 ± 0.066 |
| ELFFCFKRLHGLMGYNDLES | 4.13 ± 0.063 |
| ELLIHDEYDILMCN | 0.136 ± 0.36 |
| ELMDNFLVSFVGKHRVTRSS | inactive |
| ELPMLGFVCNYSKHQLFIFY | 5.04 ± 0.1 |

| Substance | amyloid nucleation score |
| --- | --- |
| ELVGYNVVGAIGSQ | -0.022 ± 0.26 |
| EMSPSLMELFHACVVLVRFG | -0.051 ± 0.37 |
| EMYFALLVLFVLGGFSM | -0.409 ± 0.76 |
| ENIYRRLLVLELLVWSCRGK | 0.569 ± 0.34 |
| ENLPGWLLVKMVQYY | 0.276 ± 0.54 |
| ENNFYY | 0.953 ± 0.26 |
| EPTFWPRW | 0.626 ± 0.35 |
| ERDSSALRMAYSICHGNSVV | 0.232 ± 0.56 |
| EREVCMFRLYAKRGPAVDWL | 2.19 ± 0.21 |
| ERIFGFI | -1.45 ± 0.55 |
| ERIHSSCNYTFAFLLGFMSV | 0.053 ± 0.54 |
| ERILSFFF | inactive |
| ERNYVT | -0.525 ± 1.1 |
| ERRRYLALLQMSMCATGLCY | -0.219 ± 0.43 |
| ESHCYSGDTWLCLCLSLVTR | 8.457 ± 0.034 |
| ESRIYYVKQYSCLSTLTMVR | -0.283 ± 0.35 |
| ESSLDCMRDANNKAAWVEVV | 1.05 ± 0.23 |
| ESTAWAQVIPDNRLCGRNCR | -0.153 ± 1.1 |
| ESYTIDCRVFGLRGKGSTRA | 0.695 ± 0.46 |
| ETFVYYFNVSSLVT | 0.11 ± 0.38 |
| ETGCLRARAVATGVLGRREK | 0.171 ± 0.65 |
| ETGSRGAN | 0.263 ± 0.25 |
| ETRVITGDVSDRF | 2.55 ± 0.091 |
| EVDSVNVSLCVS | -0.796 ± 0.64 |
| EVHGCYRAWDCMMVACVNAL | 0.963 ± 0.53 |

| Substance | amyloid nucleation score |
| --- | --- |
| EVSRKTDTGQLLSDHVFFMN | -2.23 ± 0.78 |
| EWFNRSRYKCHRRHVLMAMV | 0.343 ± 0.8 |
| EWHVWVCIWGCGIEAWMLSW | 1.84 ± 0.16 |
| EWRKPGFVRGLRLNCVLRYF | -1.51 ± 0.78 |
| EYNRTLWSCYHWFVHVPPTN | -0.171 ± 1 |
| EYRGSVWLAGS | -0.379 ± 0.29 |
| EYSGLDVTDCQDT | 0.44 ± 0.36 |
| EYSYVVGMFREIVDTRTVFV | 0.107 ± 0.2 |
| EYYFSTELGGVFTLY | 1.18 ± 0.12 |
| FAPSSIDFYRGSKNGLFTAQ | -0.302 ± 0.4 |
| FARGNINLMVVFVFFDS | 5.766 ± 0.049 |
| FARLGLSSQHRRLIVC | -1.31 ± 0.54 |
| FAYSLTPFRWSRDLLMSPLG | 0.104 ± 0.28 |
| FCALWVQFRYRE | 3.89 ± 0.1 |
| FCCTLAIFSL | 7.594 ± 0.024 |
| FCILYSVFNGRLRYAFGDAS | -2.06 ± 0.62 |
| FCIVQIMDVTVLGSTSATID | 5.592 ± 0.054 |
| FCLFFLASQIIVMGVTTYTG | -0.313 ± 0.76 |
| FCPMVLAFTSRGIATKNCGV | 0.566 ± 0.74 |
| FCRDLVSGLIMTMPLCTDEM | 0.079 ± 0.5 |
| FCSCWNSEFNENSFVWRNIL | 5.35 ± 0.058 |
| FCVCARWCIVVSGLVCDLRY | -0.323 ± 0.63 |
| FCYQMSEVWIWCKFIFSI | -1 ± 1.1 |
| FDAMSSFLQYLLTHKMWVGD | 0.799 ± 0.43 |
| FDHHRGGNTLMQGDLLVMDF | 0.925 ± 0.67 |

| Substance | amyloid nucleation score |
| --- | --- |
| FDLVGDGYCNYALEYTRLNM | -1.15 ± 1.1 |
| FDLWIPGAVVEVIDMGSAAR | 0.651 ± 0.44 |
| FDNQFTLVVRGIVGTVYWCV | 7.233 ± 0.065 |
| FDPSMSFNWCICSFELDWAG | 5.321 ± 0.032 |
| FDQVWRCVASLRPIVLSCSS | 0.322 ± 0.54 |
| FDSPYPMPMSHSVNSSLIIW | -0.155 ± 0.3 |
| FDTRITMMCALWTFPAT | 7.15 ± 0.079 |
| FDVLMRSTGRANKKFLVCRQ | -0.033 ± 0.38 |
| FDYLVNIRHGCTWCRTTI | -0.108 ± 0.4 |
| FEAFLSMWIFAPECLRAHSV | -0.288 ± 1.1 |
| FEGNGCSILWLSFCRWAQ | 0.98 ± 0.4 |
| FEGSLPVPDGEEAWCAQRMS | -0.006 ± 0.45 |
| FEIDCIKIVCKASYHGLSGT | 2.99 ± 0.1 |
| FEIGGHIDCETGVCCGVAVM | 4.56 ± 0.052 |
| FEIWWLVGVVFWMVSGVNTV | -0.074 ± 0.22 |
| FFCSSRPDE | -0.286 ± 0.8 |
| FFDSLGAGRYNRIRRWLSVV | -1.33 ± 0.44 |
| FFDSSCIFITHLL | 1.77 ± 0.18 |
| FFESCRLVNFELLVLSFFIG | -0.527 ± 0.28 |

— the supplement of paper PMC12042874
